Measured values taken from patent US20250304636A1 (H LEE MOFFITT CANCER CENTER AND RESEARCH INSTITUTE, published 2025).

Biological target: T1, Syk (UniProt P43405 1-635, limits assumed)
T1 construct: also called Syk kinase; pcDNA3-Syk
Assay: co-immunoprecipitation from co-transfected AD293 cells
Experimental: AD293 cells (a cell line derived from HEK293 with improved cell adherence and plaque formation, Agilent) were washed with Dulbecco's PBS (DPBS), and resuspended in 2.0 μg/ml of anti-human TREM-1 antibody (R&D Systems) on ice for 30 min. After washing with DPBS, cells were incubated with 1.0 μg/ml of Affinipure rabbit anti-mouse IgG (H+L) Ab (Jackson Immunoresearch) at 37° C. for 10 min. Cells were then scraped off the plates and followed by centrifugation at 400 g for 10 minutes at 4° C. Cells were washed twice with cold 1×DPBS and lysed on ice for 30 min at 4° C. in 1 ml of lysis buffer (1% NP-40, 10 mM Tris, 150 mM NaCl, 0.5 mM phenylmethylsulfonyl fluoride, 10 mM iodoacetamide, 50 mM NaF, 1 mM ethylenediamenetetraacetic acid, 1 mM sodium orthovanadate, 0.25% sodium Deoxycholate, 10 μl Ala-Ala-Phe p-nitroanilide (SIGMA), 10 μl protease cocktail I (SIGMA cat #P2850) and 10 μl protease cocktail II (SIGMA cat #P5726). Cell lysates were centrifuged at 12,000 g at 4° C. for 15 minutes to remove nuclei and cell debris, after which the clarified lysate supernatant was isolated. The protein concentration of the soluble extracts was determined using the Bradford protein assay (Bio-Rad, Hercules, CA, USA) following manufacturer protocol. Western blots were blocked in PBST containing 4% BSA for 1 h and then incubated overnight at 4° C. in primary antibodies. […]

B1: wild-type DAP12 (12-kilodalton DNAX activating protein) (other)
chain: IALAVYFLGRLVPRGRGAAEAATRKQRITETESPYQELQGQRSDVYSDLNTQRPYYK
notes: Over-expressed from pcDNA3 in AD293 cells together with pcDNA3-Syk; co-immunoprecipitated from cell lysates; No signal peptide limits are stated; also called WT DAP12; WT
B1: no binding.
